# According to patent publication US20090317363A1:
# Substitutions are numbered along the chain they refer to.
# B1: RANTES derivative: signature sequence SEQ ID NO: 64 fused to positions 10-68 of native RANTES (SEQ ID NO: 1) (ligand)
# chain: QGPPLMSLQSCCFAYIARPLPRAHIKEYFYTSGKCSNPAVVFVTRKNRQVCANPEKKWVREYINSLEMS
# B2: RANTES derivative: signature sequence SEQ ID NO: 15 fused to positions 10-68 of native RANTES (SEQ ID NO: 1) (ligand)
# chain: B1 chain with S7Q, L8T, Q9T, S10P
# B3: RANTES derivative: signature sequence SEQ ID NO: 14 fused to positions 10-68 of native RANTES (SEQ ID NO: 1) (ligand)
# chain: B1 chain with P4L, S7W, S10V
# B4: RANTES derivative: signature sequence SEQ ID NO: 3 fused to positions 10-68 of native RANTES (SEQ ID NO: 1) (ligand)
# chain: B1 chain with S7W, L8M, S10V
# B5: RANTES derivative: signature sequence SEQ ID NO: 8 fused to positions 10-68 of native RANTES (SEQ ID NO: 1) (ligand)
# chain: B1 chain with S7W, L8M
# B6: RANTES derivative: signature sequence SEQ ID NO: 22 fused to positions 10-68 of native RANTES (SEQ ID NO: 1) (ligand)
# chain: B1 chain with L8F
# B7: RANTES derivative: signature sequence SEQ ID NO: 26 fused to positions 10-68 of native RANTES (SEQ ID NO: 1) (ligand)
# chain: B1 chain with P4L, L5S, M6G, S7W, S10V
# B8: RANTES derivative: signature sequence SEQ ID NO: 23 fused to positions 10-68 of native RANTES (SEQ ID NO: 1) (ligand)
# chain: B1 chain with L8T
# B9: RANTES derivative: signature sequence SEQ ID NO: 19 fused to positions 10-68 of native RANTES (SEQ ID NO: 1) (ligand)
# chain: B1 chain with L5G, M6D, S7G, L8G, Q9S, S10V
# B10: RANTES derivative: signature sequence SEQ ID NO: 21 fused to positions 10-68 of native RANTES (SEQ ID NO: 1) (ligand)
# chain: B1 chain with L5G, M6D, S7W, S10V
# B11: RANTES derivative: signature sequence SEQ ID NO: 66 fused to positions 10-68 of native RANTES (SEQ ID NO: 1) (ligand)
# chain: B1 chain with L8V
# B12: RANTES derivative: signature sequence SEQ ID NO: 13 fused to positions 10-68 of native RANTES (SEQ ID NO: 1) (ligand)
# chain: B1 chain with S7W, L8R, Q9G
# B13: RANTES derivative: signature sequence SEQ ID NO: 18 fused to positions 10-68 of native RANTES (SEQ ID NO: 1) (ligand)
# chain: B1 chain with L5G, M6S, S7Y, L8D, Q9Y
# B14: RANTES derivative: signature sequence SEQ ID NO: 67 fused to positions 10-68 of native RANTES (SEQ ID NO: 1) (ligand)
# chain: B1 chain with L8A
# B15: RANTES derivative: signature sequence SEQ ID NO: 11 fused to positions 10-68 of native RANTES (SEQ ID NO: 1) (ligand)
# chain: B1 chain with S7A, S10V
# B16: RANTES derivative: signature sequence SEQ ID NO: 29 fused to positions 10-68 of native RANTES (SEQ ID NO: 1) (ligand)
# chain: B1 chain with M6G, L8M, Q9G, S10P
# B17: RANTES derivative: signature sequence SEQ ID NO: 24 fused to positions 10-68 of native RANTES (SEQ ID NO: 1) (ligand)
# chain: B1 chain with S10V
# B18: RANTES derivative: signature sequence SEQ ID NO: 17 fused to positions 10-68 of native RANTES (SEQ ID NO: 1) (ligand)
# chain: B1 chain with L5G, M6D, S7I, L8V, Q9L, S10A
# B19: RANTES derivative: signature sequence SEQ ID NO: 16 fused to positions 10-68 of native RANTES (SEQ ID NO: 1) (ligand)
# chain: B1 chain with L5G, M6D, S7T, L8V, Q9L, S10W
# B20: RANTES derivative: signature sequence SEQ ID NO: 10 fused to positions 10-68 of native RANTES (SEQ ID NO: 1) (ligand)
# chain: B1 chain with S7W
# B21: RANTES derivative: signature sequence SEQ ID NO: 68 fused to positions 10-68 of native RANTES (SEQ ID NO: 1) (ligand)
# chain: B1 chain with L8G
# B22: RANTES derivative: signature sequence SEQ ID NO: 12 fused to positions 10-68 of native RANTES (SEQ ID NO: 1) (ligand)
# chain: B1 chain with S7W, Q9G, S10G
# B23: RANTES derivative: signature sequence SEQ ID NO: 69 fused to positions 10-68 of native RANTES (SEQ ID NO: 1) (ligand)
# chain: B1 chain with L8G, S10V
# B24: RANTES derivative: signature sequence SEQ ID NO: 65 fused to positions 10-68 of native RANTES (SEQ ID NO: 1) (ligand)
# chain: B1 chain with S10A
# B25: RANTES derivative: signature sequence SEQ ID NO: 20 fused to positions 10-68 of native RANTES (SEQ ID NO: 1) (ligand)
# chain: B1 chain with P4L, L5S, M6G, S7Q, L8S, Q9T, S10P
# B26: RANTES derivative: signature sequence SEQ ID NO: 28 fused to positions 10-68 of native RANTES (SEQ ID NO: 1) (ligand)
# chain: B1 chain with L5G, M6S, S7W, L8S, Q9S, S10V
# Biological target: CCR5 (UniProt P51681)
# Assay: cell-based or functional assay
Molecule,CCR5 sequestration (%) (% of control surface CCR5),CCR5 signalling (%) (% of Emax of PSC-RANTES),"anti-HIV potency (IC50, nM) by cell fusion assay","anti-HIV potency (IC50, nM) by viral replication assay"
B1,28,17.2,0.04 nM,–
B2,2,2.4,0.65 nM,–
B3,8,1.4,0.13 nM,–
B4,3,< 5,0.02 nM,–
B5,0,2.5,0.03 nM,0.278 nM
B6,12,2.4,0.02 nM,0.47 nM
B7,41,9.4,0.58 nM,–
B8,35,5.3,0.03 nM,0.625 nM
B9,66,85.1,0.28 nM,–
B10,54,14.2,0.54 nM,–
B11,42,33.4,0.07 nM,–
B12,9,< 5,0.07 nM,–
B13,69,90.1,0.08 nM,–
B14,15,10.3,0.12 nM,–
B15,9,1.6,0.03 nM,–
B16,36,22.6,0.39 nM,–
B17,35,2.4,0.03 nM,0.174 nM
B18,70,87.7,0.02 nM,129 nM
B19,70,96.3,0.02 nM,0.091 nM
B20,0,2.3,0.03 nM,0.403 nM
B21,24,10.6,0.17 nM,–
B22,4,4.1,0.03 nM,0.204 nM
B23,38,20.1,0.22 nM,–
B24,30,11.5,0.04 nM,–
B25,71,95.6,0.66 nM,–
B26,59,45,0.03 nM,0.213 nM

# Biological target: CCR5 (UniProt P51681)
# Assay: cell-based or functional assay
# Remark: another data set of the same source
Molecule,CCR5 sequestration (%) (% of control surface CCR5),CCR5 signalling (%) (% of Emax of PSC-RANTES),"anti-HIV potency (IC50, nM) by cell fusion assay","anti-HIV potency (IC50, nM) by viral replication assay"
NNY-RANTES (n-nonanoyl-RANTES(2-68)) (from UniProt P13501 25-91) (ligand),77,84.5,0.29 nM,–
PSC-RANTES (ligand),75,100,0.02 nM,0.281 nM
Met-RANTES (from UniProt P13501 24-91) (ligand),26,15,75.1 nM,–
"AOP-RANTES, the aminooxypentane oxime of [glyoxylyl]1RANTES(2-68) (from UniProt P13501 25-91) (ligand)",71,80.7,1.12 nM,–
